Measured values: US20190153097A1 (AGENCY FOR SCIENCE TECHNOLOGY AND RESEARCH, published 2019)

Biological target: T1, human CTLA-4 (human, UniProt P16410 36-161, limits assumed)
T1 construct: Soluble protein, construct not described; also called huCTLA-4; CD152
Test: blocking ELISA: CD80 coated, antibody pre-incubated with human CTLA-4, binding of CTLA-4 to CD80 detected

T1 sequence (P16410 36-161 limits assumed): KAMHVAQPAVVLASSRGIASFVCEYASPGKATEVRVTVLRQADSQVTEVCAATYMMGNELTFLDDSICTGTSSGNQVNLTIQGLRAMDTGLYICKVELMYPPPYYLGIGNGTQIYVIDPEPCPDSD

B1: L3D10 (commercial mouse anti-human CTLA-4 IgG1) (antibody, V domains shown)
VH: QVQLKESGPGLVAPSQSLSITCTVSGFSLTSYGLSWVRQPPGKGLEWLGVIWYDGNTNFHSALISRLTISKDNSKSQVFLELNSLQTDDTATYYCAKTEGHYYGSNYGYYALDYWGQGTSVTVSS
VL: DIQMTQSPASLSVSVGETVTITCRASENIYSNLAWYQQKQGKSPQLLVYAATNLADGVPSRFSGSGSGTQYSLKINSLQSEDFGTYFCQHLWGTPYTFGGGTKLEIK
  IC50 (read off the curve): ~2 nM
